According to US20240252635A1 (Genmab, published 2024):
Residue numbers refer to the chain shown, from its start. In names and notes the source's numbering stands.

T1: human CD37 (human (Homo sapiens), UniProt P11049 1-281)
T1 construct: Endogenous on Daudi cells, Raji cells and human blood B cells; also called Leukocyte Antigen CD37; GP52-40
T1 sequence: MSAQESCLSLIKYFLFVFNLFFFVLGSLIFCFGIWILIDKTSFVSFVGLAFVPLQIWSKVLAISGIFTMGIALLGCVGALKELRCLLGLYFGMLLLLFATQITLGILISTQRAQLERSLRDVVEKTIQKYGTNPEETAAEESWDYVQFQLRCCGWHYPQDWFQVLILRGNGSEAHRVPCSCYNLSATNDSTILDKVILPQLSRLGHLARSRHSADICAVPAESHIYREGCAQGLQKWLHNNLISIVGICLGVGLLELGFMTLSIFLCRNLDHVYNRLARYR

T2: cynomolgus monkey CD37 (cynomolgus monkey (Macaca fascicularis), UniProt P11049 1-281 (human entry))
T2 construct: also called mfCD37; cynomolgus CD37
T2 chain: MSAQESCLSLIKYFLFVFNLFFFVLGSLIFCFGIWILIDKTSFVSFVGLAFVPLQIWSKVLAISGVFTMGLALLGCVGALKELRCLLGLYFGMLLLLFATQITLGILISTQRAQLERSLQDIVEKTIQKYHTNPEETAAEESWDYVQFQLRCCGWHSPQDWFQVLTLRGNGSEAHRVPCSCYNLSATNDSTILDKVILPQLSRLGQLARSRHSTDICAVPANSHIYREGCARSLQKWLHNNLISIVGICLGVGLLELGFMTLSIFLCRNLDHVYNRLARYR

B1: bsIgG1-016-H5L2-LC90S-F405L-E430Gx010-H5L2-K409R-E430G (bispecific antibody)
heavy 1: not shown
light 1: DVVMTQSPSTLSASVGDRVTITCQASQNIDSNLAWYQQKPGKAPKFLIYYASNLPFGVPSRFKGSGSGTEFTLTISSLQPDDFATYYCQSADVGSTYVAAFGGGTKVEIKRTVAAPSVFIFPPSDEQLKSGTASVVCLLNNFYPREAKVQWKVDNALQSGNSQESVTEQDSKDSTYSLSSTLTLSKADYEKHKVYACEVTHQGLSSPVTKSFNRGEC
heavy 2: not shown
light 2: AYDMTQSPSTLSASVGDRVTITCQASQNIIDYLAWYQQKPGKAPKLLIHKASTLASGVPSRFKGSGSGTEFTLTISSLQPDDFATYYCQQGYSNSNIDNTFGGGTKVEIKRTVAAPSVFIFPPSDEQLKSGTASVVCLLNNFYPREAKVQWKVDNALQSGNSQESVTEQDSKDSTYSLSSTLTLSKADYEKHKVYACEVTHQGLSSPVTKSFNRGEC
notes: also called bispecific CD37 antibody
B2: IgG1-004-H5L2-E430G (antibody)
heavy: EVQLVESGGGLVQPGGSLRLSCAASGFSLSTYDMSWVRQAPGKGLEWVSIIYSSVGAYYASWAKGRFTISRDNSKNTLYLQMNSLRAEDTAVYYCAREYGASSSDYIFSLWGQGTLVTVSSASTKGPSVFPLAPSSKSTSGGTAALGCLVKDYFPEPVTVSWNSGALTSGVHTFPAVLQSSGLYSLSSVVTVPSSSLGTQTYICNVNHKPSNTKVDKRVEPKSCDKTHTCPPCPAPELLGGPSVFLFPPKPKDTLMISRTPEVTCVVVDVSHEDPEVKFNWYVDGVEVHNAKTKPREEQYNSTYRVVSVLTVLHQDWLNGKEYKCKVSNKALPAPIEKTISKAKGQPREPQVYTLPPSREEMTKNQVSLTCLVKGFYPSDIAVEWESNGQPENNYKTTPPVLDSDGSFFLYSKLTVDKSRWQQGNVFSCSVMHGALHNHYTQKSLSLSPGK
light: AQVLTQSPSPLSASVGDRVTITCQASQSVYNSQNLAWYQQKPGKAPKLLIYEASKLASGVPSRFKGSGSGTEFTLTISSLQPDDFATYYCQGEFSCISADCTAFGGGTKVEIKRTVAAPSVFIFPPSDEQLKSGTASVVCLLNNFYPREAKVQWKVDNALQSGNSQESVTEQDSKDSTYSLSSTLTLSKADYEKHKVYACEVTHQGLSSPVTKSFNRGEC
notes: IgG1,kappa with E430G (EU numbering)
B3: IgG1-G28.1 (antibody)
heavy: not shown
light: DIQMTQSPASLSASVGETVTITCRTSENVYSYLAWYQQKQGKSPQLLVSFAKTLAEGVPSRFSGSGSGTQFSLKISSLQPEDSGSYFCQHHSDNPWTFGGGTELEIKRTVAAPSVFIFPPSDEQLKSGTASVVCLLNNFYPREAKVQWKVDNALQSGNSQESVTEQDSKDSTYSLSSTLTLSKADYEKHKVYACEVTHQGLSSPVTKSFNRGEC
notes: IgG1,kappa
B4: IgG1-G28.1-E430G (antibody)
heavy: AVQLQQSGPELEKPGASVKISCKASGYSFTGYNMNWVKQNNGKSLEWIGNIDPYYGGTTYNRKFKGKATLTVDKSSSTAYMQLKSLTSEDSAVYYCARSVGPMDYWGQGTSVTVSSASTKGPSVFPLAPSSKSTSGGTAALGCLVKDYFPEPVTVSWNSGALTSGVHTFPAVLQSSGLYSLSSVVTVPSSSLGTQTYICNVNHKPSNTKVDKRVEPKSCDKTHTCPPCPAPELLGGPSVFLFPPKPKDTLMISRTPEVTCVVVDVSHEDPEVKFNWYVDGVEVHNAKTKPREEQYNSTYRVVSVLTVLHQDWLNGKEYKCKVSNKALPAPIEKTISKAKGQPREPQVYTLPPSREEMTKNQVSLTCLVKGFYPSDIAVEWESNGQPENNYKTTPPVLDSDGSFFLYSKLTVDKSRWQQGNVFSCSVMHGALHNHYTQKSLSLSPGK
light: B3 light
notes: IgG1,kappa with E430G
B5: IgG1-016-H5L2-E430G (antibody)
heavy: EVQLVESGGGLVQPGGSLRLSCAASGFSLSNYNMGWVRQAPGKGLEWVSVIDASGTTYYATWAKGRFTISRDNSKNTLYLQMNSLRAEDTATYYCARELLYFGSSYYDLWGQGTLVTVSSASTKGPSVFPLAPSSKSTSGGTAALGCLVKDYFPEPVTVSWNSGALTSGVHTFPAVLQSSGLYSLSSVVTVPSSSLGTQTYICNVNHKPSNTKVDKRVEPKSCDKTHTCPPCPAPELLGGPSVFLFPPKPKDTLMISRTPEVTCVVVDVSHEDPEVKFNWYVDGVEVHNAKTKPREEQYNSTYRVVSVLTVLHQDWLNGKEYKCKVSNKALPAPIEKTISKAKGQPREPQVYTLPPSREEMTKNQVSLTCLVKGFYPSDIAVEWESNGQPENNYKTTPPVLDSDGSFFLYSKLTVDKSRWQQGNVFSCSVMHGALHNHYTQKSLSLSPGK
light: B1 light 1 with S90C
notes: IgG1,kappa with E430G
B6: IgG1-005-H1L2-E430G (antibody)
heavy: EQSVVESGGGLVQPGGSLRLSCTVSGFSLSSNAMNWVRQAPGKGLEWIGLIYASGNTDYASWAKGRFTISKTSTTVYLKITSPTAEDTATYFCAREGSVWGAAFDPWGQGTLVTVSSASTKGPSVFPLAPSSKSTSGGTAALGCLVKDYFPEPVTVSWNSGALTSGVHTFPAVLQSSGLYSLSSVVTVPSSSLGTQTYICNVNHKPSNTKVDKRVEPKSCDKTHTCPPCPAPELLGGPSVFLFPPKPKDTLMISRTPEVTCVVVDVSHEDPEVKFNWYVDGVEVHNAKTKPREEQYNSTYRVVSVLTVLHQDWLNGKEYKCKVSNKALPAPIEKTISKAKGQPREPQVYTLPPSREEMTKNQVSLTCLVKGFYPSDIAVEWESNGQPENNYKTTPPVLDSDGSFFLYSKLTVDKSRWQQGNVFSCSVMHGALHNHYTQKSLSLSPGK
light: AYDMTQSPSSVSASVGDRVTITCQASQSISNWLAWYQQKPGKAPKQLIYAASTLASGVPSRFKGSGSGTDFTLTISSLQPEDFATYYCQQGYSNSNIDNTFGGGTKVEIKRTVAAPSVFIFPPSDEQLKSGTASVVCLLNNFYPREAKVQWKVDNALQSGNSQESVTEQDSKDSTYSLSSTLTLSKADYEKHKVYACEVTHQGLSSPVTKSFNRGEC
notes: IgG1,kappa with E430G
B7: IgG1-010-H5L2-E430G (antibody)
heavy: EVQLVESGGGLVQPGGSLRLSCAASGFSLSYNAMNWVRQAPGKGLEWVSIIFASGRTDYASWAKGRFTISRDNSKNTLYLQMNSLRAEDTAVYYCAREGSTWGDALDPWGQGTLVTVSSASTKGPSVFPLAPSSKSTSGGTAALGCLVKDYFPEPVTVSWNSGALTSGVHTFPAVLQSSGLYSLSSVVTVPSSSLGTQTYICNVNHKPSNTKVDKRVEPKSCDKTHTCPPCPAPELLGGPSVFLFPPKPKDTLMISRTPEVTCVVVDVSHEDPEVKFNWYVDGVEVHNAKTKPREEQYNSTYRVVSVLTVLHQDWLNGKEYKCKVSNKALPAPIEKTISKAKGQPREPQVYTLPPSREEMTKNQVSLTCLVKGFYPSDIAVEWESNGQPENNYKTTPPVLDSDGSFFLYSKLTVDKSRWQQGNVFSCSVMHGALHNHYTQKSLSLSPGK
light: B1 light 2
notes: IgG1,kappa with E430G
B8: IgG1-004-H5L2 (antibody)
heavy: not shown
light: B2 light
B9: IgG1-37.3 (antibody)
heavy: not shown
light: DIQMTQSPASLSVSVGETVTITCRASENIRSNLAWYQQKQGKSPQLLVNVATNLADGVPSRFSGSGSGTQYSLKINSLQSEDFGTYYCQHYWGTTWTFGGGTKLEIKRTVAAPSVFIFPPSDEQLKSGTASVVCLLNNFYPREAKVQWKVDNALQSGNSQESVTEQDSKDSTYSLSSTLTLSKADYEKHKVYACEVTHQGLSSPVTKSFNRGEC
notes: IgG1,kappa
B10: IgG1-37.3-E430G (antibody)
heavy: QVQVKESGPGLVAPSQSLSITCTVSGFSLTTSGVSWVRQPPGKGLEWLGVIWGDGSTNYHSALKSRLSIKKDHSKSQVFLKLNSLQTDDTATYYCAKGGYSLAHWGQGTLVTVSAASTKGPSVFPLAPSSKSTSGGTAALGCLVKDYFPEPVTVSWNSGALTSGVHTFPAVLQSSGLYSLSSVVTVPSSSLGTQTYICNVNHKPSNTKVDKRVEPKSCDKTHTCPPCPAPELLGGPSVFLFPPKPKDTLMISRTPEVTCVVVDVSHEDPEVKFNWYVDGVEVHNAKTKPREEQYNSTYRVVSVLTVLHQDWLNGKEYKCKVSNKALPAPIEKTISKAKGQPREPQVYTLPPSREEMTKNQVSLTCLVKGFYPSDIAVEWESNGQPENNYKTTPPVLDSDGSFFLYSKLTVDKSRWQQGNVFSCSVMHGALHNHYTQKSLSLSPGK
light: B9 light
notes: IgG1,kappa with E430G
B11: IgG1-016-H5L2 (antibody)
heavy: not shown
light: B1 light 1 with S90C
notes: Humanized, IgG1,kappa
B12: IgG1-016-H5L2-F405L-E430G (antibody)
heavy: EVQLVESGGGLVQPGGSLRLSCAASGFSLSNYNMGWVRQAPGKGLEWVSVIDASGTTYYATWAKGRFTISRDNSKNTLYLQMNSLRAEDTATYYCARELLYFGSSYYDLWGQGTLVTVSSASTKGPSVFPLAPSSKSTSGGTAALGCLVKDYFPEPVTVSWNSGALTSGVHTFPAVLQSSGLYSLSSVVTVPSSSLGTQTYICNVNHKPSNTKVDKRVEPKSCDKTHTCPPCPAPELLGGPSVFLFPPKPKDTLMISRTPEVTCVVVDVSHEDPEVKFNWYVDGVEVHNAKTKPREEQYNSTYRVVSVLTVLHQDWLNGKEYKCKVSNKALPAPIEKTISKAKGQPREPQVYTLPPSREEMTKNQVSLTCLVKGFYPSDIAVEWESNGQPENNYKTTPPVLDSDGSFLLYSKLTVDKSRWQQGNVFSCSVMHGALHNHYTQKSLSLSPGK
light: B1 light 1 with S90C
notes: IgG1,kappa with F405L and E430G
B13: IgG1-016-H5L2-LC90S-F405L-E430G (antibody, V domains shown)
VH: EVQLVESGGGLVQPGGSLRLSCAASGFSLSNYNMGWVRQAPGKGLEWVSVIDASGTTYYATWAKGRFTISRDNSKNTLYLQMNSLRAEDTATYYCARELLYFGSSYYDLWGQGTLVTVSS
VL: DVVMTQSPSTLSASVGDRVTITCQASQNIDSNLAWYQQKPGKAPKFLIYYASNLPFGVPSRFKGSGSGTEFTLTISSLQPDDFATYYCQSADVGSTYVAAFGGGTKVEIKR
notes: light chain carries C90S; also called D1; IgG1-3009-016-H5L2-F405L-E430G-LC90S
B14: IgG1-005-H1L2 (antibody)
heavy: not shown
light: B6 light
notes: Humanized, IgG1,kappa
B15: IgG1-005-H1L2-K409R-E430G (antibody)
heavy: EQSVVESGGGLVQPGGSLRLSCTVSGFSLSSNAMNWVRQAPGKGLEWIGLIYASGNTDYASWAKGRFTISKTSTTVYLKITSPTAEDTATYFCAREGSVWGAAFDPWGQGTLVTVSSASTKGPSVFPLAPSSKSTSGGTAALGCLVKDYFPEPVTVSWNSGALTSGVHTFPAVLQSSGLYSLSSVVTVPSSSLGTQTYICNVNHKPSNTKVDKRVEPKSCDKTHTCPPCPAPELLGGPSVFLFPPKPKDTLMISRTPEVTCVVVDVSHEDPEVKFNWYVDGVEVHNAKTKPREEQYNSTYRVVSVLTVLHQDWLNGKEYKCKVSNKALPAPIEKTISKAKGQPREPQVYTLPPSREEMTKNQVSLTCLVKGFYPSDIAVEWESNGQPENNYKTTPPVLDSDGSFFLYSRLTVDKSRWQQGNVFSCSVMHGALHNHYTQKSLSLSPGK
light: B6 light
notes: IgG1,kappa with K409R and E430G
B16: IgG1-010-H5L2 (antibody)
heavy: not shown
light: B1 light 2
notes: Humanized, IgG1,kappa

What follows are binders tested against T1, human CD37 (assay: flow cytometry, Alexa-488 labeled antibody on B cells in human whole blood; average of 6 donors).
Method: (§1) Binding to human or cynomolgus monkey B cells was determined in a whole blood binding assay. Heparin-treated human blood from healthy volunteers was derived from UMC Utrecht (Utrecht, The Netherlands), hirudin-treated blood from cynomolgus monkeys was derived from Covance (Münster, Germany). Blood was aliquoted to wells of a 96-well round-bottom plate (Greiner Bio-one, cat. no. 65010; 35 μL/well). Red blood cells (RBC) were lysed by addition of 100 μL RBC lysis buffer (10 mM KHCO₃ [Sigma P9144], 0.1 mM EDTA [Fluka 03620] and […] NH₄CL [Sigma A5666]) and incubated on ice until RBC lysis was complete.
(§2) Cells were pelleted and washed twice in 150 μL FACS buffer and resuspended in 150 μL TO-PRO-3 (end concentration 0.2 μM; Molecular Probes, cat no. T3605). Samples were measured by flow cytometry using an LSRFortessa flow cytometer. Binding is expressed as geometric mean of A488 fluorescence intensity for viable TO-PRO-3⁻/CD14⁻/CD19⁺ B-cells (human) or viable TO-PRO-3⁻/CD14⁻/CD19⁺/CD20⁺ B-cells (cynomolgus monkey). Log-transformed data were analyzed using best-fit values of a non-linear dose-response fit in GraphPad PRISM.

Binder	EC50
B1	0.85 µg/mL

Target: T2, cynomolgus monkey CD37
Test: flow cytometry, Alexa-488 labeled antibody on B cells in cynomolgus monkey whole blood; average of 4 animals
Method: as §1, §2

Binder	EC50
B1	0.63 µg/mL

Target: T2, cynomolgus monkey CD37
Test: flow cytometry on CHO cells expressing cynomolgus monkey CD37
Method: (§3) Binding to cell surface expressed CD37 (Daudi cells, CHO cells expressing cynomolgus CD37) was determined by flow cytometry. Cells, resuspended in RPMI containing 0.2% BSA, were seeded at 100,000 cells/well in polystyrene 96 well round-bottom plates (Greiner bio-one Cat #650101) and centrifuged for 3 minutes at 300×g, 4° C. Serial dilutions (0.003-10 μg/mL final antibody concentration in 3.33× serial dilutions) of CD37 or control antibodies were added and cells were incubated for 30 minutes at 4° C. Plates were washed/centrifuged twice using FACS buffer (PBS/0.1% BSA/0.01% Na-Azide). Next, cells were incubated for 30 minutes at 4° C. with R-Phycoerythrin (PE)-conjugated goat-anti-human IgG F(ab′)2 (Jackson ImmunoResearch Laboratories, Inc., West Grove, PA; cat #: 109-116-098) diluted 1/100 in PBS/0.1% BSA/0.01% Na-Azide. Cells were washed/centrifuged twice using FACS buffer, resuspended in 30 μL FACS buffer and analyzed by determining mean fluorescent intensities using an Intellicyt iQue™ screener (Westburg). Binding curves were generated using non-linear regression (sigmoidal dose-response with variable slope) analyses within GraphPad Prism V6.04 software (GraphPad Software, Sand Diego, CA, USA).
Binding to CHO cells expressing cynomolgus monkey CD37 was determined by flow cytometry using a method as described above.

Binder	binding result
B2	binds
B3	no binding (tested: 0.003-10 µg/mL)
B4	no binding (tested: 0.003-10 µg/mL)
B5	binds
B6	binds
B7	binds

What follows are binders tested against T1, human CD37 (assay: flow cytometry on Daudi cells).
Method: as §3

Binder	binding result
B8	binds
B2	binds
B3	binds
B4	binds
B9	binds
B10	binds
B5	binds
B11	binds
B12	binds
B13	binds
B6	binds
B14	binds
B15	binds
B16	binds
B7	binds
